Measured values taken from patent US20050079516A1, “Chromosome stability assay” (The Board of Trustees of the University of Illinois, priority 2003, published 2005).

What was measured:
[1] = system: chromatin strands from invasive HT1080 fibrosarcoma cells; assay: proteinase K treatment of isolated chromatin strands; assay type: biochemical, human; conditions: proteinase K 5 mg/ml, 5 minutes
Procedure: (§1) FIGS. 2D and 2E illustrate the effects of treatment of chromatin strands from normal human microvascular endothelial cells and invasive HT1080 fibrosarcoma cells with proteinase K under the conditions described above except that proteinase K (5 mg/ml) was substituted for ALU and the incubation time was reduced from 60 minutes to 5 minutes.

[2] = system: chromatin strands from normal human microvascular endothelial cells; assay: as above; assay type: biochemical; conditions: normal endothelial cell chromatin; proteinase K 5 mg/ml, 5 minutes
Procedure: as §1

chromatin strands = assay: degradation of chromatin strands with other endonucleases; assay type: biochemical; conditions: isolated chromatin strands

| Molecule | chromatin dispersion (FIGS. 2D, 2E) [1] | chromatin dispersion (FIGS. 2D, 2E) [2] | correlation of chromatin cleavage pattern with invasive potential of the cell (chromatin strands) |
| --- | --- | --- | --- |
| proteinase K: protease proteinase K, chromatin modifying agent (protein, UniProt P06873 106-384, looked up) Proteinase K: AAQTNAPWGLARISSTSPGTSTYYYDESAGQGSCVYVIDTGIEASHPEFEGRAQMVKTYYYSSRDGNGHGTHCAGTVGSRTYGVAKKTQLFGVKVLDDNGSGQYSTIIAGMDFVASDKNNRNCPKGVVASLSLGGGYSSSVNSAAARLQSSGVMVAVAAGNNNADARNYSPASEPSVCTVGASDRYDRRSSFSNYGSVLDIFGPGTSILSTWIGGSTRSISGTSMATPHVAGLAAYLMTLGKTTAASACRYIADTANKGDLSNIPFGTVNLLAYNNYQA | extensively dispersed | remained largely intact |  |
| RNase A: nuclease (protein, UniProt P61823 27-150, looked up) Ribonuclease pancreatic: KETAAAKFERQHMDSSTSAASSSNYCNQMMKSRNLTKDRCKPVNTFVHESLADVQAVCSQKNVACKNGQTNCYQSYSTMSITDCRETGSSKYPNCAYKTTQANKHIIVACEGNPYVPVHFDASV |  |  | does not exhibit chromatin cleavage patterns that correlate with the invasive potential |
